test: soluble on expression in E. coli; label from the status in PepcDB or PDB records

Sequence	soluble on expression in E. coli
MGSDKIHHHHHHMSNKPFFYQDPFPLKKDDTEYYLLTSEHVSVAEFEGQEILKVAPEALTLLARQAFHDASFMLRPAHQQQVADILRDPQASENDKYVALQFLRNSDIAAKGVLPTCQDTGTAIIVGKKGQRVWTGGGDEAALARGVYNTYIEDNLRYSQNAALDMYKEVNTGTNLPAQIDLYSVDGDEYKFLCIAKGGGSANKTYLYQETKALLTPGKLKNYLVDKMRTLGTAACPPYHIAFVIGGTSAEANLKTVKLASAKYYDALPTEGNEHGQAFRDIELEKELLLEAQNLGLGAQFGGKYFAHDIRVIRLPRHGASCPVGMGVSCSADRNIKAKINRDGIWIEKLERNPGKYIPEALRQAGEGEAVRVDLNRPMSEILQQLSQYPVSTRLSLNGTIIVGRDIAHAKLKERMDRGEGLPQYIKDHPIYYAGPAKTPEGYASGSLGPTTAGRMDSYVDQLQSQGGSMIMLAKGNRSQQVTDACKKHGGFYLGSIGGPAAVLAQGSIKRLECVEYPELGMEAIWKIEVEDFPAFILVDDKGNDFFQQIQSSQCGAALSNVAALRGGNMIRYFAGERRKRLIRSTPLCCYR	not soluble
MIGMMNSGAESSVEFYAAARQSSLYEPRKKSSQSRTYTPEGRVLVNGAPLSPTLDPQDLWKNMIIKTAAQKMIRENCEKKETGPMATIRRLSEKLKLKKSKSSAAMMNLDLDLDQKIPEVSEIESSSTTAVPQSPQQFVTNIRIEEANPVFFVQQSESLDRPHMLFEETSVLARLLEESSQIDKMEKDFAEKDSGKGSIDDDSVVVHKL	not soluble
MGGSHHHHHHGMASALKEAMVQAEEAAAEITRKLEKQEKKRLKKEKKRLAALALASSENSSSTPEECEEMSEKPKKKKKQKPQEVPQENGMEDPSISFSKPKKKKSFSKEELMSSDLEETAGSTSIPKRKKSTPKEETVNDPEEAGHRSGSKKKRKFSKEEPVSSGPEEAVGKSSSKKKKKFHKASQED	not soluble
MGSDKIHHHHHHMADLCVNLVPLFDALPQDEKMQIEKLVQHKNYQKGEVIIDPTINDNLVIVADGNAKQYTLDEDGYENVLQILHTGDYIGEDWLFGQKNINNYVEATEHSEICLLKRQDLLKLMHKQPELSIRLLELSIVKVSEMQKQIHLMALPKVEDRLLKYLQTYADEIGKNNFTLPLKMKDLALYLGTTPETLSRKFALLEKQGQLKRQLRRIELFEN	not soluble
MKPSSPSRSKGHAKARRKTREELNQEARDRKRQKKRRGHAPGSRAAGGNNTSGSKGQNAPKDPRIGSKTPIPLGVTEKVTKQHKPKSEKPMLSPQAELELLETDERLDALLERLEAGETLSAEEQSWVDAKLDRIDELMQKLGLSYDDDEEEEEDEKQEDMMRLLRGN	not soluble
DRKQQERELTETNSVLSSVLDNMPVGILIEDADRTITTANKKLLDILDVSLTPSGLIGCEYAEIAETLKTQFADPDQFNETVNKIHSTRDAVFDEELLMADGRILARSYVSYSLPDGTGNIWLYRDIT	not soluble
MAHHHHHHSLAKRIVGSTPKQDGFRMPGEFEPQEKVWMIWPERPDNWRDGGKPVQEAFTNVAKAISQFTPMNVVVSQQQFQNCRRQLPPEITVYEMSNNDAWVRDCGPSFVINDHGEIRGVDWTFNAWGGLVDGLYFPWDQDDLVAQKICEIEHVDSYRTDDFVLEGGSFHVDGQGTVLTTEMCLLSEGRNPQLSKEAIEQKLCDYLNVEKVLWLGDGIDPEETNGHVDDVACFIAPGEVACIYTEDQNSPFYEAAQDAYQRLLKMTDAKGRQLKVHKLCCPVKNVTIKGSFKIDFVEGTMPREDGDICIASYMNFLITNDGVIVPQYGDENDHLALEQVQTMFPDKKIVGVNTVEVVYGGGNIHCITQQEPKREG	not soluble
MLLKGLYKVEFETPRRKAVGVIFASDGRLHGGSSAFAYIGAYEQQGQTIQGTITARRHTSDPAIQSVFGVDEVRVDFHGSTIGDYAQVEGMAAEAPSLGFKALLTRISQ	not soluble
MAHHHHHHVDDDDKMYQSAIKVEPASPPYYSEKTQLYNKPHEEPSNSLMAIECRVCGDKASGFHYGVHACEGCKGFFRRTIRLKLIYDRCDLNCRIHKKSRNKCQYCRFQKCLAVGMSHNAIRFGRMPQAEKEKLLAEISSDIDQLNPESADLRALAKHLYDSYIKSFPLTKAKARAILTGKTTDKSPFVIYDMNSLMMGEDKIKFKHITPLQEQSKEVAIRIFQGCQFRSVEAVQEITEYAKSIPGFVNLDLNDQVTLLKYGVHEIIYTMLASLMNKDGVLISEGQGFMTREFLKSLRKPFGDFMEPKFEFAVKFNALELDDSDLAIFIAVIILSGDRPGLLNVKPIEDIQDNLLQALELQLKLNHPESSQLFAKLLQKMTDLRQIVTEHVQLLQVIKKTETDMSLHPLLQEIYKDLY	soluble
SEPIAAAPQIPVSEWDNPGIKLQVAPIPRICGMPEVQDMKLITPVRRSARIERTVARYPEMLQEHDVVVASLNELLEVDKTECFIFRENEALPVTLGFEVLES	not soluble
MGKKAHGGKMKPEIDENGTLLVPPPRTIANQDHFHRLNYLYQISAYQTRARQKARTDAHTPLARNYIKSMDLISKKTKTSLLPTIKRTICKKCHRLLWTPKKLEITSDGALSVMCGCGTVKRFNIGADPNYRTYSEREGNLLNS	soluble
MASDENIGADGEQKPSRPFLRKGQGTARFRMPRNNKTSAGAPPTSELSSASSPSINVPRFSLSNALPNSARTVDSGISNEDETRPPTTASLPMDQPSLSSSPENRLNPAPSVAEEHGHSGQHAEEEEDNDTDEVSAMPSFVPDEPSTLVNSDHELSDDALKYKNAAAEFKAFERRMDSMRSASTITTSLATPSSCAPSNSSEPPTRSTPIMNDLGVGPNNHNWPSSMQELSGISLETPQARPLGSNRINQLVRSEAQTGISLLQHHERPTVTAPLRRNDMMNSSRQNPQNGNVQDENRPEHVYDQPIHVPGSSLDRQKLEIEIRRHRNLNIQLRDTIAHLDYAEESVHTTKRQLEEKISEVNNFKKELIEEFKKCKKGVEEEFEKKFEKIKEDYDELYEKLKRDQRDLERDQKILKKGTGERNKEFTETIATLRDKLRASETKNAQYRQDIRVRDEKLKKKDEEIEKLQKDGNRLKSTLQTLEKRVKQLRTEKERDDKEKEMFAKVAMNRKTSNPVPPVLNQSVPISITSNGPSRHPSSSSLTTFRKPSTSNRERGVSWADEPNEQSLEAVPQEFLMMPVKEMPGKFGKCTIYRDSLGETSKVTDTIANGLLFEYSNGDLRWVNRQNAVNIYISAVDKTVRIDLPTYNISIIHTFQRQVEVLRPGNNITLISIKRREVRTDLIYQNGMYKTEIFNRDGRYVTKDFSNQEVSRKYNPGTHTYRDNQCRYVLVTDYNDFELVEPEFRLRWYQGDPTGLNNQYILKIIGRPECSEKTLRLEVNLSTCEGTLETAEMIGDKRRKTTLFQWKK	not soluble
MPFTPSEIKNKEFTRVKNGLEPTEVANYLEQLSNEIERLKEDKKQLEKVIEDRDSNIKSYKDVHQSVSDALIQAQKVGEETKQAATKEAEAVLSKAQVQADSIVNDAIEKARRLAFQTEDMKRQSKVFRSRFRMLVEAQLDLLKSEDWDYLLNYDLDAEQVTLEDIHHLHDNDLTPEERAMKQKQNQEISANQPSTSSSESVSQSNANNESSQSTSNN	soluble
MGSDKIHHHHHHMKVKLLSALNDNNVDMAQTNSQRQLAMTIFAIAGEFDQNLPLNLCLILDRSGSMHGQPIKTVIQAVEGLIDRLKVGDRISVVAFSGSVEVIIPNQVIEDPESIKSQIKSKLSASGGTAIAEGLELGITELMKGTRGAVSQAFLLTDGHGESSLRIWKWDIGRDDNKRCLKLAQKAAKLNLTINTFGFGNSWNQDLLEKIADVGGGTLAHIEHPEQAVEQFSRLFGRIQSIGLTNAYLLLSLVPNVRLAELKPIAQVAPDTIELPVERETDGSFAVRLGDLMQDVERVVLANIYLGQLPEGKQAIGHLQIRYDDPMVNQEDLLSPLMPIYADVVRAYQPASNPQVQQSILALAKYRQTQLAEAKLLQGDRTGAATMLQTAAKTALQIGDKGAATVLQTSATRLQAGEELSEADLKKTRIVSKTVLQE	not soluble
MNIRCARVDDLMSMQNANLMCLPENYQMKYYFYHALSWPQLSYIAEDHKGNVVGYVLAKMEEDPGEEPHGHITSLAVKRSYRRLGLANKMMDQTARAMVETYNAKYVSLHVRVSNRAALNLYKNTLKFEIVDTEPKYYADGEDAYAMRRDLAKWAEERNIEPADREAYTTAKTTDDKKKNRS	not soluble
MTNPMQATRKIISITDQNVVHREDQVAREYPLTIYVNDREFATMVCTQADLEEMVIGFLGSEGLIRFYKQDVASLSIDESRGFAYVSLTKELPTEWQFYSKRMIGSCCGKSRQSFYFHNDAKTAKTSMSRTTMTPEQCFRLMEALQEQSVIFQQTGGVHNAALATPEQMLISRTDIGRHNALDKLYGYCLMNGVPVRDKVLLFSGRISSEVLLKAAKIGVGIMLSKSAPTELALTMAEELNITTAGFIRDGRMNIYTVPERILTPKKEVQLEHHHHHH	soluble
MGSDKIHHHHHHMSLYLDDTLSRIVELDLKDTRIVPFLAGEPGIGKTSFIYGIGERAGYKVFSISVNTLADKGDLTGARTLQDPADGKWKQMFFPHATFVEANDYALANPNETVVILLDEINRTDSDVTSASMTISTERRVGTTDLAPNVRLAVTGNLTGNVTHLDSASLTRFSLYEVKPSAETFMNIMGGRLNKYIRTVLTKYPEYIFMKPTTATALITTGDDDDDHTTNAKQMMDFNAVLGSDQDMVQFTAPRTIEGLSVWLNNADDDFLRLLLQEKVDGLARSMSLLQATLESHTGDTAFTAEVLSEMTNDLLSSASQAPSGPIKPFVYDRLAAAPSNTVLEQEVHTLSLNDRADVLLFALHDTVNNAAPSIIAHLASEGVLDELPKDRISKIVSLGPVPTANYHALTRQDTTLTRNLGPAVLGFLES	not soluble
MAHHHHHHMGRLEIRVCGARNVANVQRVGKPDPYVKVKLGNSKKSQIKYKTHVAENCLNPVWNELFKFQVADYDSMQVVFELWNDNVIVDDLLGSYSLSLNGLTRGVVIDTWVLLEGTKGSSSELHLRVLAVDFGRDPGPGDRLTLSLEGDTMMPSTGQTYRPPKNYVPPTQGIVLQSYPPAPLGPPPPVVYSPSAAPRPQVQYGYVTPPQPQRYACGAPPPPPQQPPSQGYGYGAVQAPQNYSYGAPPPPQPMYGAPQLPQCLPYAAGPPPPQMYGPPPPQRRPVQMAYGIPPDM	not soluble
MSLSDDDVDNVIEVARDSWKWTYKDIYSDEFIENWISEKYSKEKLLNEITKSQLNLDLVFLGSFHESKLIGFIELKISSSKAELLRLYLRPEYTHRGVGRILLSEAEELVKKRDVEECILYVHKKNYIATSFYKKNGFQVKDIYGDDLIMIKRYKVEGHHHHHH	not soluble
MGSDKIHHHHHHMISDHDGEFGSQNVRAALPSLMALRCFEAAARHEHFSRAADELHLTHGAVSRAVRLLEDDLGVALFERRSRRVFLTDAGRKLAQAVHDGLHLMRQAAHELRTDAARAQRWVLSCEPTLLMRWLIPRWPDFQATYPRVDIHLAAAGGPFSFDHGIDIAIRRNDFAWPAGYHAERLFTERVGPVCRPDRVDTWFSGGRDDRALKRGAPRLHTRTRPDAWKEWAAAAHQPAGSGRGQMFDHFYFSLQAAVAGLGVAIGPWHLVRDDLESEVLVAPMGFVQDGSHYCLLTPEPVKDGSAQSALLDWLRTMA	not soluble
EDPLAKKQTVRLIKDLQRAINKVLCTRLRLSNFFTIDHFIQKLHTARKILVLTGAGVSTSLGIPDFRSSEGFYSKIKHLGLDDPQDVFNYNIFMHDPSVFYNIANMVLPPEKIYSPLHSFIKMLQMKGKLLRNYTQNIDNLESYAGISTDKLVQCHGSFATATCVTCHWNLPGERIFNKIRNLELPLCPYCYKKRREYFPEGYNNKVGVAASQGSMSERPPYILNSYGVLKPDITFFGEALPNKFHKSIREDILECDLLICIGTSLKVAPVSEIVNMVPSHVPQVLINRDPVKHAEFDLSLLGYCDDIAAMVAQKCGWTIPHKKWNDLKNKNFKCQEKDKGVYVVTSDEHPKTL	soluble

From the DeepSol protein solubility set
